The record followed here is doi:10.1101/738153.

The target in assay [1] is TbBILBO1-NTD Y64A (Trypanosoma brucei). The assay can be described thus: ITC. A general note: Isothermal titration calorimetry measures the heat released or taken up as one component is titrated into another.
The target of assay [2] is TbBILBO1 N-terminal domain (TbBILBO1-NTD), wild type, residues 1-120 (Trypanosoma brucei). Put plainly: ITC.

As for “TbFPC4 C-terminal domain (TbFPC4-CTD), residues 357-404 (domain or fragment)”, the fold reduction of binding affinity against wild type in assay [1] was 2.5 fold. Also, the Kd in assay [2] was 5 µM.

In general, Kd refers to the free concentration of one partner at which half of the binding sites on the other are occupied at equilibrium, for simple one-to-one binding. High values mean a looser complex, low ones a tighter complex.
